Where a chain is given by its changes, count along the chain named. Names may count otherwise.
Tested on: Lenti-X 293T cells
Test: YFP fluorescence quenching anion reporter plate reader assay of engineered receptors stimulated with acetylcholine or a non-native ligand
Format: cell-based
Settings: for percent quench of YFP fluorescence, 10 uM ach: acetylcholine 10 uM; for percent quench of YFP fluorescence, 100 uM ach: acetylcholine 100 uM; for percent quench of YFP fluorescence, 1 mM ach: acetylcholine 1 mM; for percent quench of YFP fluorescence, 3 mM ach: acetylcholine 3 mM
Summary of the method: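 YFP quench was followed for about 1 min 43 s after ligand delivered in iodide-based ECS, pH 7.2. Values are end-of-read fluorescence (last 10 s) divided by the pre-ligand baseline (15 s). Cells were LX293T, transfected with receptor DNA a day before the assay.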

B1: CODA407: engineered chimeric LGIC receptor, Y210F in SEQ ID NO: 33 (protein)
chain: MRCSPGGVWLALAASLLHVSLQGEFQRKLYKELVKNYNPLERPVANDSQPLTVYFSLSLLQIMDVDEKNQVLTTNIWLQMSWTDHYLQWNVSEYPGVKTVRFPDGQIWKPDILLYNSADERFDATFHTNVLVNSSGHCQYLPPGIFKSSCPMDLKNFPMDVQTCKLKFGSWSYGGWSLDLQMQEADISGYIPNGEWDLVGIPGKRSERFFECCKEPYPDVTFTVTMRRRMGYYLIQMYIPSLLIVILSWISFWINMDAAPARVGLGITTVLTMTTQSSGSRASLPKVSYVKAIDIWMAVCLLFVFSALLEYAAVNFVSRQHKELLRFRRKRRHHKSPMLNLFQEDEAGEGRFNFSAYGMGPACLQAKDGISVKGANNSNTTNPPPAPSKSPEEMRKLFIQRAKKIDKISRIGFPMAFLIFNMFYWIIYKIVRREDVHNQ
modifications: synthetic sequence of chimeric LGIC
Q: With B1 as the molecule, how does the “YFP fluorescence quenching using CNL001” value (1 nM CNL001, first column) read?
A: −10.845%

Q: And the “YFP fluorescence quenching using CNL001” value (1 nM CNL001, second column)?
A: −2.629%

Q: And the “YFP fluorescence quenching using TC-5619/Bradanicline” value (3 nM brd)?
A: −0.53%

Q: What about the “YFP fluorescence quenching using Varenicline” value (3 nM var, first column) of the same molecule?
A: 2.441

Q: And the “YFP fluorescence quenching using Varenicline” value (3 nM var, second column)?
A: 7.326

Q: And the “YFP fluorescence quenching using CNL001” value (10 nM CNL001, first column)?
A: 4.66%

Q: And the “YFP fluorescence quenching using CNL001” value (10 nM CNL001, second column)?
A: 12.246%

Q: And the “YFP fluorescence quenching using TC-5619/Bradanicline” value (30 nM brd)?
A: 8.71%

Q: And the “YFP fluorescence quenching using Facinicline” value (30 nM fac)?
A: −21.94

Q: What about the “YFP fluorescence quenching using Varenicline” value (30 nM var, first column) of the same molecule?
A: 1.275

Q: What about the “YFP fluorescence quenching using Varenicline” value (30 nM var, second column) of the same molecule?
A: 12.96

Q: What about the “YFP fluorescence quenching using CNL001” value (50 nM CNL001, first column) of the same molecule?
A: 29.307%

Q: What about the “YFP fluorescence quenching using CNL001” value (50 nM CNL001, second column) of the same molecule?
A: 41.78%

Q: And the “YFP fluorescence quenching using ABT-126” value (50 nM abt)?
A: −13.07%

Q: And the “YFP fluorescence quenching using CNL001” value (100 nM CNL001, first column)?
A: 50.654%

Q: What about the “YFP fluorescence quenching using CNL001” value (100 nM CNL001, second column) of the same molecule?
A: 62.054%

Q: And the “YFP fluorescence quenching using CNL002” value (100 nM CNL002)?
A: −12.47%

Q: And the “YFP fluorescence quenching using ABT-126” value (100 nM abt)?
A: 0.1%

Q: What about the “YFP fluorescence quenching using AZD-0328” value (100 nM azd0328) of the same molecule?
A: 0.85%

Q: What about the “YFP fluorescence quenching using ABT-126” value (300 nM abt) of the same molecule?
A: 5.97%

Q: What about the “YFP fluorescence quenching using AZD-0328” value (300 nM azd0328) of the same molecule?
A: 1.25%

Q: And the “YFP fluorescence quenching using TC-5619/Bradanicline” value (300 nM brd)?
A: 76.26%

Q: What about the “YFP fluorescence quenching using Facinicline” value (300 nM fac) of the same molecule?
A: −22.46

Q: And the “YFP fluorescence quenching using Varenicline” value (300 nM var, first column)?
A: 13.119

Q: And the “YFP fluorescence quenching using Varenicline” value (300 nM var, second column)?
A: 2.355

Q: And the “YFP fluorescence quenching using Varenicline” value (500 nM var, first column)?
A: 11.539

Q: What about the “YFP fluorescence quenching using Varenicline” value (500 nM var, second column) of the same molecule?
A: 6.571

Q: And the “YFP fluorescence quenching using CNL001” value (1 uM CNL001, first column)?
A: 81.742%

Q: And the “YFP fluorescence quenching using CNL001” value (1 uM CNL001, second column)?
A: 81.304%

Q: What about the “YFP fluorescence quenching using CNL002” value (1 uM CNL002) of the same molecule?
A: −3.93%

Q: And the “YFP fluorescence quenching using ABT-126” value (1 uM abt)?
A: 50.23%

Q: And the “YFP fluorescence quenching using TC-6987” value (1 uM tc6987)?
A: −15.22

Q: What about the “YFP fluorescence quenching using Varenicline” value (1 uM var, first column) of the same molecule?
A: 8.397

Q: And the “YFP fluorescence quenching using Varenicline” value (1 uM var, second column)?
A: 7.309

Q: What about the “YFP fluorescence quenching using TC-6987” value (10 uM tc6987) of the same molecule?
A: −19.89

Q: What about the “YFP fluorescence quenching using CNL002” value (30 uM CNL002) of the same molecule?
A: 80.97%

Q: What about the “YFP fluorescence quenching using AZD-0328” value (30 uM azd0328) of the same molecule?
A: 82.08%

Q: And the “YFP fluorescence quenching using Facinicline” value (30 uM fac)?
A: 82.63

Q: What about the “YFP fluorescence quenching using TC-6987” value (500 uM tc6987) of the same molecule?
A: −33.32

Q: What about the “percent quench of YFP fluorescence, 10 uM ach” value of the same molecule?
A: −3.75%

Q: What about the “percent quench of YFP fluorescence, 100 uM ach” value of the same molecule?
A: −1.6%

Q: What about the “percent quench of YFP fluorescence, 1 mM ach” value of the same molecule?
A: 71.65%

Q: And the “percent quench of YFP fluorescence, 3 mM ach” value?
A: 79.09%

B2: CODA409: engineered chimeric LGIC receptor, Y210W in SEQ ID NO: 33 (protein)
chain: B1 chain with F210W
modifications: synthetic sequence of chimeric LGIC
Q: Which results are given for B2?
A: YFP fluorescence quenching using CNL001 (1 nM CNL001, first column): −8.914%; YFP fluorescence quenching using CNL001 (1 nM CNL001, second column): −14.319%; YFP fluorescence quenching using TC-5619/Bradanicline (1 nM brd): −13.45%; YFP fluorescence quenching using TC-5619/Bradanicline (3 nM brd): −0.64%; YFP fluorescence quenching using Varenicline (3 nM var, first column): 7.776; YFP fluorescence quenching using Varenicline (3 nM var, second column): −2.964; YFP fluorescence quenching using CNL001 (10 nM CNL001, first column): −1.444%; YFP fluorescence quenching using CNL001 (10 nM CNL001, second column): 4.393%; YFP fluorescence quenching using TC-5619/Bradanicline (10 nM brd): 37.3%; YFP fluorescence quenching using TC-5619/Bradanicline (30 nM brd): 76.36%; YFP fluorescence quenching using Facinicline (30 nM fac): −10.93; YFP fluorescence quenching using Varenicline (30 nM var, first column): −5.568; YFP fluorescence quenching using Varenicline (30 nM var, second column): 3.024; YFP fluorescence quenching using CNL001 (50 nM CNL001, first column): 11.897%; YFP fluorescence quenching using CNL001 (50 nM CNL001, second column): 11.434%; YFP fluorescence quenching using ABT-126 (50 nM abt): 8.23%; YFP fluorescence quenching using CNL001 (100 nM CNL001, first column): 12.719%; YFP fluorescence quenching using CNL001 (100 nM CNL001, second column): 16.053%; YFP fluorescence quenching using CNL002 (100 nM CNL002): −14.92%; YFP fluorescence quenching using ABT-126 (100 nM abt): 55.53%; YFP fluorescence quenching using AZD-0328 (100 nM azd0328): −6.57%; YFP fluorescence quenching using TC-5619/Bradanicline (100 nM brd): 72.72%; YFP fluorescence quenching using ABT-126 (300 nM abt): 74.82%; YFP fluorescence quenching using AZD-0328 (300 nM azd0328): −4.84%; YFP fluorescence quenching using TC-5619/Bradanicline (300 nM brd): 75.47%; YFP fluorescence quenching using Facinicline (300 nM fac): −5.82; YFP fluorescence quenching using Varenicline (300 nM var, first column): 2.815; YFP fluorescence quenching using Varenicline (300 nM var, second column): 3.06; YFP fluorescence quenching using ABT-126 (500 nM abt): 77.39%; YFP fluorescence quenching using Varenicline (500 nM var, first column): 1.766; YFP fluorescence quenching using Varenicline (500 nM var, second column): 2.819; YFP fluorescence quenching using CNL001 (1 uM CNL001, first column): 14.077%; YFP fluorescence quenching using CNL001 (1 uM CNL001, second column): 15.495%; YFP fluorescence quenching using CNL002 (1 uM CNL002): −0.85%; YFP fluorescence quenching using ABT-126 (1 uM abt): 77.77%; YFP fluorescence quenching using TC-5619/Bradanicline (1 uM brd): 78.73%; YFP fluorescence quenching using TC-6987 (1 uM tc6987): 62.82; YFP fluorescence quenching using Varenicline (1 uM var, first column): 1.844; YFP fluorescence quenching using Varenicline (1 uM var, second column): −4.059; YFP fluorescence quenching using ABT-126 (3 uM abt): 69.33%; YFP fluorescence quenching using ABT-126 (10 uM abt): 74.79%; YFP fluorescence quenching using Facinicline (10 uM fac): 60.97; YFP fluorescence quenching using TC-6987 (10 uM tc6987): 78.66; YFP fluorescence quenching using CNL002 (30 uM CNL002): 29.62%; YFP fluorescence quenching using ABT-126 (30 uM abt): 75.61%; YFP fluorescence quenching using AZD-0328 (30 uM azd0328): 81.64%; YFP fluorescence quenching using Facinicline (30 uM fac): 57.77; YFP fluorescence quenching using ABT-126 (50 uM abt): 75.72%; YFP fluorescence quenching using ABT-126 (100 uM abt): 78.52%; YFP fluorescence quenching using TC-6987 (500 uM tc6987): 70.35; percent quench of YFP fluorescence, 10 uM ach: −5.43%; percent quench of YFP fluorescence, 100 uM ach: 17.14%; percent quench of YFP fluorescence, 1 mM ach: 78.84%; percent quench of YFP fluorescence, 3 mM ach: 78.55%
